The results in this text go back to patent WO2021218879A1 (dated 2021).

Read-outs that look alike come from different tables or passages of the source.

Assay [1] has as its target T1, SARS-CoV-2-S1-his protein (SARS-CoV-2, UniProt P0DTC2 16-685).
For assay [2], the target named is T2, SARS-CoV-2 RBD protein (SARS-CoV-2, UniProt P0DTC2 319-541).
Assay [3] addresses T3, SARS-CoV-2 S full-length protein on pseudovirus (SARS-CoV-2, UniProt P0DTC2 14-1273). Kind of assay: cell-based or functional assay.
The target of assay [4] is T4, SARS-CoV-2 S1 protein on HF-nCoV-SPIKE-8D3 cells (SARS-CoV-2, UniProt P0DTC2 14-1273).
T4 construct: whole, on cells
Put plainly: flow cytometry on HF-nCoV-SPIKE-8D3 cells, titrated antibody. In general terms: A flow cytometer gives signals particle by particle.

The target in assay [5] is T1, SARS-CoV-2-S1-his protein. Put plainly: ELISA, S1 protein coated at varied concentration, antibody at 1 ug/mL.
Assay [6] deals with T5, SARS-CoV-2 ECD protein (SARS-CoV-2, UniProt P0DTC2 14-1213).
T5 construct: extracellular domain
Put plainly: ELISA, ECD protein coated at varied concentration, antibody at 1 ug/mL. (In general: In an ELISA, binding on a coated surface is turned into a signal by an enzyme label.)

Assay [7] addresses T1, SARS-CoV-2-S1-his protein. The source holds these as a separate data set.
Assay [8] concerns the target T3, SARS-CoV-2 S full-length protein on …. Kind of assay: cell-based or functional assay. The source holds these as a separate data set.
Assay [9] deals with CD16a-AVI-His(V158)+BirA protein (UniProt P08637 17-208). Put plainly: ELISA, biotinylated CD16a captured on avidin, titrated antibody.
Assay [10] concerns the target T6, CD32a-AVI-His(R131)+BirA protein (UniProt P12318 36-218).
T6 sequence: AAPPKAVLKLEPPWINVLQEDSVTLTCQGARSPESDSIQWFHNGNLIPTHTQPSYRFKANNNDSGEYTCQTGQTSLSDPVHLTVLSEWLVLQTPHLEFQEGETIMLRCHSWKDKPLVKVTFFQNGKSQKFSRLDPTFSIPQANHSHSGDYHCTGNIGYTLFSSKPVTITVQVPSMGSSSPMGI
Put plainly: ELISA, biotinylated CD32a captured on avidin, titrated antibody.

Assay [11] deals with T7, CD32b-AVI-HIS+BirA protein (UniProt P31994 43-217).
T7 sequence: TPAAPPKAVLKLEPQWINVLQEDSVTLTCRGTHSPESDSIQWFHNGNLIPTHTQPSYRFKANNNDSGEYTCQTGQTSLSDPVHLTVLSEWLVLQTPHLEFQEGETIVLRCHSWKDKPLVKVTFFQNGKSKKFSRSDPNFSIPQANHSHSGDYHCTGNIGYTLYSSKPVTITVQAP
Kind of assay: ELISA, biotinylated CD32b captured on avidin, titrated antibody.

Assay [12] concerns the target T1, SARS-CoV-2-S1-his protein. Put plainly: ELISA, S1 protein coated at varied concentration, antibody at 1 ug/mL. This is another data set of the same source.
Assay [13] deals with T1, SARS-CoV-2-S1-his protein. Kind of assay: BLI (OctetRED96e), biotinylated S1 on SA sensor, antibody in solution.
The target in assay [14] is T5, SARS-CoV-2 ECD protein. Put plainly: ELISA, ECD protein coated at varied concentration, antibody at 1 ug/mL. This is another data set of the same source.
For assay [15], the target named is T2, SARS-CoV-2 RBD protein. Put plainly: ELISA, RBD protein coated at varied concentration, antibody at 1 ug/mL.
In assay [16] the target is T2, SARS-CoV-2 RBD protein. Kind of assay: BLI (OctetRED96e), biotinylated RBD on SA sensor, antibody in solution.
The target in assay [17] is CD64-AVI-His+BirA protein (UniProt P12314 16-288). Put plainly: ELISA, biotinylated CD64 captured on avidin, titrated antibody.
Chain of CD64-AVI-His+BirA protein (P12314 16-288 limits assumed): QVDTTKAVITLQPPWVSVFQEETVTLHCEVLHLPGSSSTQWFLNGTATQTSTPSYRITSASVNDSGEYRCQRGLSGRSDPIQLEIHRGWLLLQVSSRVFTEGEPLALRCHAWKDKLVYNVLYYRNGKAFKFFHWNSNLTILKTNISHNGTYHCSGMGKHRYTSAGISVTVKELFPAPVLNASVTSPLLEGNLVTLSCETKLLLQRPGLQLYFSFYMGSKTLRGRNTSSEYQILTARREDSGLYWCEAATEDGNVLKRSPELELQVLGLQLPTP

Chain of CD16a-AVI-His(V158)+BirA protein (P08637 17-208 F176V limits assumed): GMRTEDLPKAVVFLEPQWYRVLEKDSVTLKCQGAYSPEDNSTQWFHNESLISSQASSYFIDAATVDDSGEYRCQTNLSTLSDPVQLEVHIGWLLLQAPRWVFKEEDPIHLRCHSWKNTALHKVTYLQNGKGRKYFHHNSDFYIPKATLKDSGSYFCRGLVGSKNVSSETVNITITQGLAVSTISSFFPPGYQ

B1: human-mouse chimeric antibody CoV2-mhB27 (antibody, V domains shown)
VH: EVKLVESGGGLVKPGGSLKLSCAASGFTFSNYGMSWVRQSPEKRLEWVAEISSGGSYTYYPDTVTGRFTISRDNAKNTLYLEMSSLRSEDTAMYYCARFRYDGGGGTVDYWGQGTSVTVSS
VL: not shown
notes: also called murine antibody CoV2-mhB27
Broadly, the EC50 is the concentration that produces a half-maximal response. Low values mean greater potency, high ones weaker potency. In the case of B1, the EC50 in assay [1] came to 0.024 µg/mL; with SARS-CoV-2 RBD protein [2] it was 0.044 µg/mL; in assay [4], 2.77 µg/mL; in assay [5], 0.116 µg/mL; with SARS-CoV-2 ECD protein [6] it was 0.307 µg/mL. For the same molecule, the “neutralization IC50, SARS-CoV-2 pseudovirus on 293FT-ACE2 cells (luciferase)” value in [3] stood at 0.0087 µg/mL.

B2: humanized antibody CoV2-HB27 (antibody)
heavy: not shown
light: EIVLTQSPATLSLSPGERATLSCRASESVDNYGISFMNWFQQKPGQAPRLLIYAASNQGSGVPARFSGSGSGTDFSLTISSLEPEDFAVYFCQQSKEVPRTFGQGTKVEIKRTVAAPSVFIFPPSDEQLKSGTASVVCLLNNFYPREAKVQWKVDNALQSGNSQESVTEQDSKDSTYSLSSTLTLSKADYEKHKVYACEVTHQGLSSPVTKSFNRGEC
notes: also called IgG1 subtype CoV2-HB27 antibody; CoV2-HB27-IgG1
The Kd is the constant that tells how readily two partners part at equilibrium. The low end stands for a tighter complex, the high end for a looser complex. As a reminder, the koff is a measure of how fast the partners let go of each other. In general, kon refers to the second-order rate constant of association. Turning to B2, the EC50 in [7] was found to be 0.179 µg/mL; in assay [12], 0.183 µg/mL; with SARS-CoV-2 ECD protein [14], 0.972 µg/mL; with SARS-CoV-2 RBD protein [15], 0.0222 µg/mL. Moreover, the “neutralization IC50, SARS-CoV-2 pseudovirus on 293FT-ACE2 cells (luciferase)” value in assay [8] amounted to 0.0059 µg/mL. Also, the binding result in assay [9], in assay [10] and in [11] was “binds” each time. Moreover, the Kd amounted to 0.37 nM in [13] and 0.039 nM with SARS-CoV-2 RBD protein [16]. For the same molecule, the koff in assay [13] was determined as 0.00039 s⁻¹; in the assay with SARS-CoV-2 RBD protein [16], 1.4e-05 s⁻¹. Further, the association rate constant (kon) turned out to be 1.1e+06 M⁻¹ s⁻¹ in assay [13] and 370000 M⁻¹ s⁻¹ with SARS-CoV-2 RBD protein [16].

B3: CoV2-HB27-Ae0-IgG1 (antibody)
heavy: not shown
light: EIVLTQSPATLSLSPGERATLSCRASESVDNYGISFMNWFQQKPGQAPRLLIYAASNQGSGVPARFSGSGSGTDFSLTISSLEPEDFAVYFCQQSKEVPRTFGQGTKVEIKRTVAAPSVFIFPPSDEQLKSGTASVVCLLNNFYPREAKVQWKVDNALQSGNSQESVTEQDSKDSTYSLSSTLTLSKADYEKHKVYACEVTHQGLSSPVTKSFNRGEC
notes: also called Ae0-IgG1 form antibody; defucosylated IgG1 subtype CoV2-HB27
For B3, the binding result in assay [9], in [10] and in [11] was “binds” each time.

B4: CoV2-HB27-Fd6-IgG1 (antibody)
heavy: not shown
light: EIVLTQSPATLSLSPGERATLSCRASESVDNYGISFMNWFQQKPGQAPRLLIYAASNQGSGVPARFSGSGSGTDFSLTISSLEPEDFAVYFCQQSKEVPRTFGQGTKVEIKRTVAAPSVFIFPPSDEQLKSGTASVVCLLNNFYPREAKVQWKVDNALQSGNSQESVTEQDSKDSTYSLSSTLTLSKADYEKHKVYACEVTHQGLSSPVTKSFNRGEC
notes: also called Fd6-IgG1 form antibody; reduced Fc function IgG1 subtype humanized antibody
B4: the binding result in [17] is listed as “binds”; in assay [10], “no binding”; in [11] it was “no binding”.
